The record followed here is patent EP4682166A1 (Guangzhou Enmai Biotechnology Co., Ltd, dated 2026).

The target in test [1] is T1, natural NMI in joint fluid of an arthritic patient (human) (UniProt Q13287).
T1 sequence (looked up): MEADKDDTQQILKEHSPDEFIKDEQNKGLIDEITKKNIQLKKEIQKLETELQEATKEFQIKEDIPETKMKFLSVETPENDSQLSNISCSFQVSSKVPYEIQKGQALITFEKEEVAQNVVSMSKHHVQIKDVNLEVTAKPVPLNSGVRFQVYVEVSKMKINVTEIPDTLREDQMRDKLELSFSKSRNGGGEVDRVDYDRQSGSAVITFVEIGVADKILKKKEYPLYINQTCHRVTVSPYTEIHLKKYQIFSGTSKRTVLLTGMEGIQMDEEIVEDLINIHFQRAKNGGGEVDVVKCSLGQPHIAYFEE
Description: sandwich ELISA; detection 94C4-1-biotin 0.5µg/mL; joint fluid stock solution. (In general: An ELISA detects its analyte on a solid surface through an enzyme-linked reagent.)

Test [2] has as its target T2, NMI-flag overexpressed protein (293T cells transfected with the hNMI-flag plasmid) (human) (UniProt Q13287).
T2 sequence (looked up): T1 sequence (looked up)
Nature of the test: sandwich ELISA; detection 94C4-1-biotin; cell supernatant of NMI-flag 293T, replicate 1.

In test [3] the target is T2, NMI-flag overexpressed protein (293T cells transfected with the hNMI-flag plasmid) (human). Nature of the test: sandwich ELISA; detection 94C4-1-biotin; cell supernatant of NMI-flag 293T, replicate 2.
Test [4] addresses T3, human NMI (N-myc Interacting protein) (human) (UniProt Q13287).
T3 sequence (looked up): T1 sequence (looked up)
Nature of the test: magnetic-bead chemiluminescent sandwich; capture 98G10 beads, detection acridinium-B-8 (1.0 mg B-8 labelled); hNMI 400 pg/mL.

For test [5], the target named is T3, human NMI (N-myc Interacting protein) (human). Description: magnetic-bead chemiluminescent sandwich, kit of Example 8-1; capture 98G10 beads, detection acridinium-B-8; series 3, hNMI 200 pg/mL.
Test [6] shares this target. Description: magnetic-bead chemiluminescent sandwich; capture 98G10 beads, detection acridinium-B-8 (1.0 mg B-8 labelled); hNMI 2000 pg/mL.
Test [7] has the same target. Description: magnetic-bead chemiluminescent sandwich, kit of Example 8-1; capture 98G10 beads, detection acridinium-B-8; series 2, hNMI 10000 pg/mL.
Test [8] has the same target. Nature of the test: magnetic-bead chemiluminescent sandwich; capture 98G10 beads, detection acridinium-B-8 (1.0 mg B-8 labelled); hNMI 50 pg/mL.
Test [9] shares this target. Nature of the test: magnetic-bead chemiluminescent sandwich; capture 98G10 beads (1.0 mg 98G10), detection acridinium-B-8; hNMI 1000 pg/ml.
For test [10] the target is unchanged. Nature of the test: magnetic-bead chemiluminescent sandwich; capture 98G10 beads, detection acridinium-B-8 (2.0 mg B-8 labelled); hNMI 100 pg/mL.
Test [11] has the same target. Description: magnetic-bead chemiluminescent sandwich; capture 98G10 beads (1.0 mg 98G10), detection acridinium-B-8; hNMI 2000 pg/ml.
Test [12] has the same target. Description: magnetic-bead chemiluminescent sandwich, kit of Example 8-1; capture 98G10 beads, detection acridinium-B-8; series 2, hNMI 900 pg/mL.
Test [13] has the same target. Nature of the test: magnetic-bead chemiluminescent sandwich; capture 98G10 beads (0.5 mg 98G10), detection acridinium-B-8; hNMI 1000 pg/ml.
Test [14] shares this target. Description: magnetic-bead chemiluminescent sandwich; capture 98G10 beads (0.5 mg 98G10), detection acridinium-B-8; hNMI 50 pg/ml.
Test [15] has the same target. Nature of the test: magnetic-bead chemiluminescent sandwich; capture 98G10 beads, detection acridinium-B-8 (1.0 mg B-8 labelled); hNMI 100 pg/mL.
For test [16] the target is unchanged. Nature of the test: magnetic-bead chemiluminescent sandwich, kit of Example 8-1; capture 98G10 beads, detection acridinium-B-8; series 2, hNMI 5000 pg/mL.
Test [17] shares this target. Nature of the test: magnetic-bead chemiluminescent sandwich, kit of Example 8-1; capture 98G10 beads, detection acridinium-B-8; series 1, hNMI 6000 pg/mL.
The target is the same in test [18]. Description: magnetic-bead chemiluminescent sandwich; capture 98G10 beads (1.0 mg 98G10), detection acridinium-B-8; hNMI 100 pg/ml.
Test [19] shares this target. Nature of the test: magnetic-bead chemiluminescent sandwich, kit of Example 8-1; capture 98G10 beads, detection acridinium-B-8; series 3, hNMI 4000 pg/mL.
The target is the same in test [20]. Nature of the test: magnetic-bead chemiluminescent sandwich, kit of Example 8-1; capture 98G10 beads, detection acridinium-B-8; series 1, hNMI 50 pg/mL.
The target is the same in test [21]. Description: magnetic-bead chemiluminescent sandwich, kit of Example 8-1; capture 98G10 beads, detection acridinium-B-8; series 1, hNMI 16000 pg/mL.
Test [22] has the same target. Description: magnetic-bead chemiluminescent sandwich, kit of Example 8-1; capture 98G10 beads, detection acridinium-B-8; series 2, hNMI 150 pg/mL.
For test [23] the target is unchanged. Nature of the test: magnetic-bead chemiluminescent sandwich; capture 98G10 beads, detection acridinium-B-8 (2.0 mg B-8 labelled); hNMI 400 pg/mL.
The target is the same in test [24]. Nature of the test: magnetic-bead chemiluminescent sandwich; capture 98G10 beads (0.5 mg 98G10), detection acridinium-B-8; hNMI 100 pg/ml.
Test [25] shares this target. Nature of the test: magnetic-bead chemiluminescent sandwich, kit of Example 8-1; capture 98G10 beads, detection acridinium-B-8; series 2, hNMI 1800 pg/mL.

B1: monoclonal antibody B-8 (antibody, V domains shown)
VH: QSLEESGGDLVKPGASLTLTCTASGFSFSSSYYMCWVRQAPGKGLEWIACIYAGSSGSTYYASWAKGRFTISKTSSTTVTLQMTSLTAADTATYFCAREYSYDDYGDFWGFNLWGPGTLVTVSS
VL: ALVMTQTPSSVSAAVGGTVTINCQASQNIYTNLAWYQQKPGQPPKLLIYGASNLESGVPSRFKGSGSGTEYTLTISDLECDDAATYYCQSSLYSRIADRANAFGGGTEVVVK
notes: Rabbit monoclonal antibody; also called B8-1
In the case of B1, the OD450 turned out to be 0.221 OD450 in [1], 0.897 OD450 in test [2] and 0.95 OD450 in [3].

B2: acridinium ester-labeled monoclonal antibody B-8 (antibody, V domains shown)
VH: B1 VH
VL: B1 VL
modifications: acridinium ester label on the antibody, site not stated
For B2, the Signal value in [4] amounted to 39900; in test [5], 25700; in test [6] it was 204000; in [7], 1.19e+06; in [8], 4560; in test [9], 201000. The Signal value in [10] worked out at 11900; in test [11], 397000; in [12], 98500; in test [13], 97600; in test [14] it was 4560; in test [15], 9490. The Signal value in test [16] was 560000; in [17], 414000; in test [18], 20400; in test [19], 572000; in test [20], 2010; in test [21] it was 1.21e+06. Further, the Signal value was found to be 15500 in test [22], 44600 in test [23], 9490 in [24] and 181000 in test [25].
